Assay results as given in US20250152746A1, “BASE EDITING OF ANGPTL3 AND METHODS OF USING SAME FOR TREATMENT OF DISEASE” (Verve Therapeutics, Inc., priority 2020, published 2025).
In the oligonucleotide strings, read from the 5' end, every base follows the letter of its sugar. An asterisk marks phosphorothioate; unmarked linkages are phosphodiester. Other units and linkages are bracketed, terminal groups are in braces. A string of capitals states the bases alone. m = 2'-O-methyl; r = 2'-OH (RNA)

Tested on: PCSK9 gene
Test: PCSK9 gRNA/SpCas9 editing in primary cynomolgus hepatocytes (Tables 2, 22)
Assay type: cell-based, cynomolgus monkey
Conditions: for Cyno Primary Hepatocyte Editing % 100: 100 ng/RNA/mL; for Cyno Primary Hepatocyte Editing % 100 / Cyno Primary Hepatocyte Editing % 500 / Cyno Primary Hepatocyte Editing % 2500: SpCas9 mRNA MS002 1:1 by weight; for Cyno Primary Hepatocyte Editing % 500: 500 ng/RNA/mL; for Cyno Primary Hepatocyte Editing % 2500: 2500 ng/RNA/mL
Protocol: In set of experiments, PCSK9 gRNAs were co-transfected with an equivalent amount (1:1 ratio by weight) of in vitro transcribed commercially available SpCas9 mRNA MS002 purchased from TriLink Biotechnologies into primary human hepatocytes at 2500, 500, or 100 ng/RNA/mL and processed as described in detailed methods. Extracted genomic DNA was analyzed for gene editing at the target site with next-generation sequencing of PCR amplicons generated around the target sites. Samples were prepared using the Nextera XT DNA library preparation kit (Illumina) according to the manufacturer's protocol. Briefly, two rounds of PCR were performed first to amplify the region of interest and second to add DNA sequences required for next generation sequencing and sample identification to the initial product. The final amplicon was sequenced on the Illumina MiSeq instrument according to the manufacturer's protocol. A wide range of editing activities (Table 2) were observed. In a second set of experiments, ANGPTL3 gRNAs were co-transfected with an equivalent amount of in vitro transcribed SpCas9 mRNA (1:1 ratio by weight) into primary human hepatocytes and processed and analyzed similarly (Table 3).
[…] Genomic DNA was processed, sequenced, and analyzed as described in the detailed methods section. GA266 was transfected independently twice to serve as two positive controls.
Plating, culturing, and transfection of primary hepatocytes. Primary human liver hepatocytes (PHH) and primary cynomolgus liver hepatocytes (PCH) from BioIVT were cultured per the manufacturer's protocol. Briefly, primary human hepatocytes and primary cyno hepatocytes were obtained as frozen aliquots from BioIVT. Four lots of primary human hepatocytes, each derived from a de-identified individual donor, were used for the experiments: STL (main donor) was used for all experiments, including screening experiments and off-target experiments; HLY, JLP, and TLY were used for off-target experiments. The HFG lot of primary cyno hepatocytes were used for experiments. Following the manufacturer's instructions, cells were thawed and rinsed prior to plating in 24-well plates that had been coated with bovine collagen overnight, with a density of approximate 350,000 cells/well in INVITROGRO hepatocyte medium supplemented with TORPEDO antibiotic mix (BioIVT). The cells were thawed and resuspended in hepatocyte thawing medium followed by centrifugation at 100 g for 10 min at 4° C. The supernatant was discarded, and the pelleted cells resuspended in hepatocyte plating medium. Each vial contains approximately 5 million cells that were used for plating one 24-well plate. Plated cells were allowed to settle and adhere for 4-6 h in a tissue culture incubator at 37° C. under 5% CO2 atmosphere. After incubation, cells were checked for monolayer formation. The incubating media were then replaced with fresh hepatocyte maintenance media (complete INVITROGRO medium obtained from BioIVT, the cell line provider). The cells thus became ready for transfection. Each of the gRNAs were co-transfected with an equivalent amount of in vitro transcribed ABE8.8 mRNA (1:1 ratio by molecular weight) into primary human hepatocytes via MessengerMax reagent (Lipofectamine), using various dilutions to assess for editing activity at different concentrations of test article. MessengerMAX from Thermo Fisher is used for transfection. Solution A: desired amount of guide RNA is mixed with 1:1 wt ratio of mRNA in OptiMEM. Solution B: MessengerMAX in OptiMEM. After mixing solutions A and B, the mixture was incubated at room temperature for 20 min. 60 μL of the incubated solution was added dropwise to each cell wells. For protospacer sequences that were a perfect match to the corresponding cynomolgous monkey PCSK9 or ANGPTL3 gene sequence, each gRNA was also co-transfected with an equivalent amount of ABE8.8 mRNA (1:1 ratio by molecular weight) into primary cynomolgous hepatocytes, and followed the same transfection protocol. […]

[1] = SpCas9 mRNA MS002, 625 ng/test article/mL, rep1
[2] = SpCas9 mRNA MS002, 625 ng/test article/mL, rep2
[3] = SpCas9 mRNA MS002, 1250 ng/test article/mL, rep1
[4] = SpCas9 mRNA MS002, 1250 ng/test article/mL, rep2
[5] = SpCas9 mRNA MS002, 2500 ng/test article/mL, rep1
[6] = SpCas9 mRNA MS002, 2500 ng/test article/mL, rep2

B1: GA397 (nucleic acid)
guide: mU*mC*mA*rGrCrUrCrCrArGrGrCrGrGrUrCrCrUrGrGmGrUrUrUrUrArGmAmGmCmUmArGmAmAmAmUmAmGmCmAmArGrUrUmArAmArAmUrAmAmGmGmCmUmArGrUmCmCrGrUrU*rAmUmCrArAmCmUmUrGmAmAmAmAmAmGmUmGrGmCmAmCmCmGmAmGmUmCmGmGmUmGmCmU*mU*mU*mUmUmUmU
[1]
  Cynomolgus Primary Hepatocytes-% Editing: 40.72%
[2]
  Cynomolgus Primary Hepatocytes-% Editing: 46.28%
[3]
  Cynomolgus Primary Hepatocytes-% Editing: 56.47%
[4]
  Cynomolgus Primary Hepatocytes-% Editing: 58.68%
[5]
  Cynomolgus Primary Hepatocytes-% Editing: 56.65%
[6]
  Cynomolgus Primary Hepatocytes-% Editing: 58.59%

B2: GA242: PCSK9 gRNA; protospacer TCACCGCTGCCGGCAACTTC (SEQ ID NO: 235) (nucleic acid)
guide: UCACCGCUGCCGGCAACUUCGUUUUAGAGCUAGAAAUAGCAAGUUAAAAUAAGGCUAGUCCGUUAUCAACUUGAAAAAGUGGCACCGAGUCGGUGCUUUU
modifications: sugars from the 5' end m3 r94 m3, linkages s3 o93 s3 (s phosphorothioate, o phosphodiester), T or U not given here
  Cyno Primary Hepatocyte Editing % 100: 1.79%
  Cyno Primary Hepatocyte Editing % 500: 7.13%
  Cyno Primary Hepatocyte Editing % 2500: 31.71%

B3: GA395 (nucleic acid)
guide: mU*mC*mA*rGrCrUrCrCrArGrGrCrGrGrUrCrCrUrGrGmGrUrUrUrUrArGmAmGmCmUmArGmAmAmAmUmAmGmCmAmArGrUrUmArAmArAmUrAmAmGmGmCmUmArGrUmCmCrGrUrUrAmUmCrArAmCmUmUrGmAmAmAmAmAmGmUmGrGmCmAmCmCmGmAmGmUmCmGmGmUmGmCmU*mU*mU*mUmUmUmU
[1]
  Cynomolgus Primary Hepatocytes-% Editing: 33.87%
[2]
  Cynomolgus Primary Hepatocytes-% Editing: 34.57%
[3]
  Cynomolgus Primary Hepatocytes-% Editing: 41.48%
[4]
  Cynomolgus Primary Hepatocytes-% Editing: 44.35%
[5]
  Cynomolgus Primary Hepatocytes-% Editing: 43.91%
[6]
  Cynomolgus Primary Hepatocytes-% Editing: 49.53%

B4: GA399 (nucleic acid)
guide: mU*mC*mA*rGrCrUrCrCrArGrGrCrGrGrUrCrCrUrGrGmGrUrUrUrUrArGmAmGmCmUmAmGmAmAmAmUmAmGmCmAmArGrUrUmArAmArAmUrAmAmGmGmCmUmArGmUrCmCrGrUrUmAmUmCrArAmCmUmUmGmAmAmAmAmAmGmUmGmGmCmAmCmCmGmAmGmUmCmGmGmUmGmCmU*mU*mU*mUmUmUmU
[1]
  Cynomolgus Primary Hepatocytes-% Editing: 37.75%
[2]
  Cynomolgus Primary Hepatocytes-% Editing: 41.8%
[3]
  Cynomolgus Primary Hepatocytes-% Editing: 55.55%
[4]
  Cynomolgus Primary Hepatocytes-% Editing: 53.02%
[5]
  Cynomolgus Primary Hepatocytes-% Editing: 58.97%
[6]
  Cynomolgus Primary Hepatocytes-% Editing: 62.75%

B5: GA244: PCSK9 gRNA; protospacer TTCCGAATAAACTCCAGGCC (SEQ ID NO: 237) (nucleic acid)
guide: UUCCGAAUAAACUCCAGGCCGUUUUAGAGCUAGAAAUAGCAAGUUAAAAUAAGGCUAGUCCGUUAUCAACUUGAAAAAGUGGCACCGAGUCGGUGCUUUU
modifications: sugars from the 5' end m3 r94 m3, linkages s3 o93 s3 (s phosphorothioate, o phosphodiester), T or U not given here
  Cyno Primary Hepatocyte Editing % 100: 1.63%
  Cyno Primary Hepatocyte Editing % 500: 7.89%
  Cyno Primary Hepatocyte Editing % 2500: 28.16%

B6: GA398 (nucleic acid)
guide: mU*mC*mA*rGrCrUrCrCrArGrGrCrGrGrUrCrCrUrGrGmGrUrUrUrUrArGmAmGmCmUmAmGmAmAmAmUmAmGmCmAmArGrUrUmArAmArAmUrAmAmGmGmCmUmArGrUrCmCrGrUrUrAmUmCrArAmCmUmUmGmAmAmAmAmAmGmUmGmGmCmAmCmCmGmAmGmUmCmGmGmUmGmCmU*mU*mU*mUmUmUmU
[1]
  Cynomolgus Primary Hepatocytes-% Editing: 39.09%
[2]
  Cynomolgus Primary Hepatocytes-% Editing: 44%
[3]
  Cynomolgus Primary Hepatocytes-% Editing: 56.45%
[4]
  Cynomolgus Primary Hepatocytes-% Editing: 55.21%
[5]
  Cynomolgus Primary Hepatocytes-% Editing: 59.85%
[6]
  Cynomolgus Primary Hepatocytes-% Editing: 63.97%

B7: GA235: PCSK9 gRNA; protospacer CACCGCTGCCGGCAACTTCC (SEQ ID NO: 228) (nucleic acid)
guide: CACCGCUGCCGGCAACUUCCGUUUUAGAGCUAGAAAUAGCAAGUUAAAAUAAGGCUAGUCCGUUAUCAACUUGAAAAAGUGGCACCGAGUCGGUGCUUUU
modifications: sugars from the 5' end m3 r94 m3, linkages s3 o93 s3 (s phosphorothioate, o phosphodiester), T or U not given here
  Cyno Primary Hepatocyte Editing % 100: 2.51%
  Cyno Primary Hepatocyte Editing % 500: 17.51%
  Cyno Primary Hepatocyte Editing % 2500: 50.03%

B8: GA396 (nucleic acid)
guide: mU*mC*mA*rGrCrUrCrCrArGrGrCrGrGrUrCrCrUrGrGmGrUrUrUrUrArGmAmGmCmUmArGmAmAmAmUmAmGmCmAmArGrUrU*mArAmArAmUrAmAmGmGmCmUmArGrUmCmCrGrUrUrAmUmCrArAmCmUmUrGmAmAmAmAmAmGmUmGrGmCmAmCmCmGmAmGmUmCmGmGmUmGmCmU*mU*mU*mUmUmUmU
[1]
  Cynomolgus Primary Hepatocytes-% Editing: 44.44%
[2]
  Cynomolgus Primary Hepatocytes-% Editing: 41.53%
[3]
  Cynomolgus Primary Hepatocytes-% Editing: 56.02%
[4]
  Cynomolgus Primary Hepatocytes-% Editing: 52.02%
[5]
  Cynomolgus Primary Hepatocytes-% Editing: 53.98%
[6]
  Cynomolgus Primary Hepatocytes-% Editing: 56.84%

B9: GA238: PCSK9 gRNA; protospacer GCACGACCCCAGCCCTCGCC (SEQ ID NO: 231) (nucleic acid)
guide: GCACGACCCCAGCCCUCGCCGUUUUAGAGCUAGAAAUAGCAAGUUAAAAUAAGGCUAGUCCGUUAUCAACUUGAAAAAGUGGCACCGAGUCGGUGCUUUU
modifications: sugars from the 5' end m3 r94 m3, linkages s3 o93 s3 (s phosphorothioate, o phosphodiester), T or U not given here
  Cyno Primary Hepatocyte Editing % 100: 0.94%
  Cyno Primary Hepatocyte Editing % 500: 4.01%
  Cyno Primary Hepatocyte Editing % 2500: 17.92%

B10: GA405: gRNA targeting PCSK9 with modifications to the tracr, for SpCas9 (nucleic acid)
guide: mU*mC*mA*rGrCrUrCrCrArGrGrCrGrGrUrCrCrUrGrGmGrUrUrUrUrArGmAmGmCmUmAmGmAmAmAmUmAmGmCmAmArGrUrUmArAmArAmUrAmAmGmGmCmUmArGrUrCmCrGrUrUrAmUmCrArAmCmUmUmGmAmAmAmAmAmGmUmGmGmCmAmCmCmGmAmGmUmCmGmGmUmGmCmU*mU*mU*mUmUrUmU
[1]
  Cynomolgus Primary Hepatocytes-% Editing: 26.2%
[2]
  Cynomolgus Primary Hepatocytes-% Editing: 26.36%
[3]
  Cynomolgus Primary Hepatocytes-% Editing: 35.84%
[4]
  Cynomolgus Primary Hepatocytes-% Editing: 35.88%
[5]
  Cynomolgus Primary Hepatocytes-% Editing: 41.85%
[6]
  Cynomolgus Primary Hepatocytes-% Editing: 47.33%
SpCas9 mRNA MS002, 2500, 1250, 625 ng/test article/mL
  editing efficiency compared to positive control GA266: slightly lower editing efficiency

B11: GA243: PCSK9 gRNA; protospacer GGCGAGGGCTGGGGTCGTGC (SEQ ID NO: 236) (nucleic acid)
guide: GGCGAGGGCUGGGGUCGUGCGUUUUAGAGCUAGAAAUAGCAAGUUAAAAUAAGGCUAGUCCGUUAUCAACUUGAAAAAGUGGCACCGAGUCGGUGCUUUU
modifications: sugars from the 5' end m3 r94 m3, linkages s3 o93 s3 (s phosphorothioate, o phosphodiester), T or U not given here
  Cyno Primary Hepatocyte Editing % 100: 0.51%
  Cyno Primary Hepatocyte Editing % 500: 1.84%
  Cyno Primary Hepatocyte Editing % 2500: 10.18%
